Results: patent publication US20180118786A1 (ECOLE POLYTECHNIQUE FEDERALE DE LAUSANNE EPFL, published 2018)
Starred links: 1 amine or outer side, 2 acyl side, 3 side chain; linkers in the order of their positions; H or OH if unused. Positions of bridges follow the written chain, without caps; N, C: chain ends. Non-standard residues stand in square brackets, D forms with d. No end group written: not given here. TATA = O=C(CC[*:1])N1CN(C(=O)CC[*:2])CN(C(=O)CC[*:3])C1; Phe(4-F) = N[C@@H](Cc1ccc(F)cc1)C(=O)O; β3hR = N=C(N)NCCC[C@H](N)CC(=O)O

Experiments:
[1] = biological target: T1, human β-FXIIa (HFXIIAB; Molecular Innovations) (human, UniProt P00748 354-362; P00748 373-615, limits assumed); assay: protease inhibition assay (FIG. 6)
T1 construct: domain: catalytic domain; Bought; also called human b-FXIIa; human FXIIa
T1 sequence (P00748 373-615 limits assumed, one chain of several): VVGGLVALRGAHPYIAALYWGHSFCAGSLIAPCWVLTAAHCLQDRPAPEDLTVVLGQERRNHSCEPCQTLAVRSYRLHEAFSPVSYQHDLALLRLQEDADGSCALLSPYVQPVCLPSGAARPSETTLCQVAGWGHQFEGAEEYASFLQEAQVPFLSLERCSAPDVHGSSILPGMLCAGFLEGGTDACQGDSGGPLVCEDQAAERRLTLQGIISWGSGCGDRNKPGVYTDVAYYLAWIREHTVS

[2] = biological target: T1, human β-FXIIa (HFXIIAB; Molecular …); assay: protease inhibition assay
[3] = biological target: T1, human β-FXIIa (HFXIIAB; Molecular …); assay: protease inhibition assay; remark: listed apart in the source
[4] = biological target: T1, human β-FXIIa (HFXIIAB; Molecular …); assay: protease inhibition assay; remark: listed apart in the source
[5] = biological target: T2, mouse FXIIa (mouse, UniProt Q80YC5 20-597, limits assumed); assay: protease inhibition assay, fluorogenic substrate
T2 construct: also called mouse α-FXIIa (MFXIIA; Molecular Innovations)
T2 sequence (looked up): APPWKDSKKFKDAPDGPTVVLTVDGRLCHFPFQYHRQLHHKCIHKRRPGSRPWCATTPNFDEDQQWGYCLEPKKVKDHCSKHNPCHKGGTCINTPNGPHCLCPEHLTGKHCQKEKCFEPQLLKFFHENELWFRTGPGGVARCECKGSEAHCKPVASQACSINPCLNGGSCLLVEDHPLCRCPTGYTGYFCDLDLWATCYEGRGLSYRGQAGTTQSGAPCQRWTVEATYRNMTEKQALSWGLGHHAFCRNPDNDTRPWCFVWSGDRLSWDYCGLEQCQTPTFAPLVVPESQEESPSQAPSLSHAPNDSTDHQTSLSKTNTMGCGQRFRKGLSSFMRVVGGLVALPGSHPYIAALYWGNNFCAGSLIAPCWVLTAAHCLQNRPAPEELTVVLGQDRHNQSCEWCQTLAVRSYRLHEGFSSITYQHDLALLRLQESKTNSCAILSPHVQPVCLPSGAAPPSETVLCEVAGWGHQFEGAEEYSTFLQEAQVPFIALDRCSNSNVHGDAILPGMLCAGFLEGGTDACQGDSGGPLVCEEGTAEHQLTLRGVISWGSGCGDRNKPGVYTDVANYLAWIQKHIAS

[6] = biological target: trypsin (human, UniProt P07477 24-247); assay: protease inhibition assay
[7] = biological target: T3, plasma kallikrein (human, UniProt P03952 20-638); assay: protease inhibition assay, specificity testing
T3 construct: also called PK
T3 sequence (P03952 20-638 limits assumed): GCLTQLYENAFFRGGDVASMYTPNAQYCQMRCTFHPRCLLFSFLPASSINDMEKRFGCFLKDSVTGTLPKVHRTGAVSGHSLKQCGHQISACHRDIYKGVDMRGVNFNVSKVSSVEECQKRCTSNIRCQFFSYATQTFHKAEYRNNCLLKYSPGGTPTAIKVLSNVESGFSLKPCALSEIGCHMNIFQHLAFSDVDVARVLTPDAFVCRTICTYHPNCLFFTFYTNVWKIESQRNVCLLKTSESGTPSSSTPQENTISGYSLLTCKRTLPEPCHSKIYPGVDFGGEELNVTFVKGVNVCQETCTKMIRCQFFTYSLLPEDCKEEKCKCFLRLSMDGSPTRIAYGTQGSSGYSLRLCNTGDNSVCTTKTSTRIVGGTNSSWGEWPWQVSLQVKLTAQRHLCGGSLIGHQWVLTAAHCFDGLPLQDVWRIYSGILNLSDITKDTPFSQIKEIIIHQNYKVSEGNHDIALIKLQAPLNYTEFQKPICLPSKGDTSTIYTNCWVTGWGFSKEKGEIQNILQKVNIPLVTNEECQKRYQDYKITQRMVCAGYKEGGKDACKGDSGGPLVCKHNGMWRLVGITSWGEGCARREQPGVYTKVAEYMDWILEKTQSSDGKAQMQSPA

[8] = biological target: T1, human β-FXIIa (HFXIIAB; Molecular …); assay: protease inhibition assay; remark: listed apart in the source
[9] = biological target: T2, mouse FXIIa; assay: protease inhibition assay
[10] = biological target: T4, factor XIa (human, UniProt P03951 19-625); assay: protease inhibition assay
T4 construct: also called FXIa

[11] = biological target: plasmin (human, UniProt P00747 97-810, limits assumed); assay: protease inhibition assay
Chain of plasmin (P00747 97-810 limits assumed): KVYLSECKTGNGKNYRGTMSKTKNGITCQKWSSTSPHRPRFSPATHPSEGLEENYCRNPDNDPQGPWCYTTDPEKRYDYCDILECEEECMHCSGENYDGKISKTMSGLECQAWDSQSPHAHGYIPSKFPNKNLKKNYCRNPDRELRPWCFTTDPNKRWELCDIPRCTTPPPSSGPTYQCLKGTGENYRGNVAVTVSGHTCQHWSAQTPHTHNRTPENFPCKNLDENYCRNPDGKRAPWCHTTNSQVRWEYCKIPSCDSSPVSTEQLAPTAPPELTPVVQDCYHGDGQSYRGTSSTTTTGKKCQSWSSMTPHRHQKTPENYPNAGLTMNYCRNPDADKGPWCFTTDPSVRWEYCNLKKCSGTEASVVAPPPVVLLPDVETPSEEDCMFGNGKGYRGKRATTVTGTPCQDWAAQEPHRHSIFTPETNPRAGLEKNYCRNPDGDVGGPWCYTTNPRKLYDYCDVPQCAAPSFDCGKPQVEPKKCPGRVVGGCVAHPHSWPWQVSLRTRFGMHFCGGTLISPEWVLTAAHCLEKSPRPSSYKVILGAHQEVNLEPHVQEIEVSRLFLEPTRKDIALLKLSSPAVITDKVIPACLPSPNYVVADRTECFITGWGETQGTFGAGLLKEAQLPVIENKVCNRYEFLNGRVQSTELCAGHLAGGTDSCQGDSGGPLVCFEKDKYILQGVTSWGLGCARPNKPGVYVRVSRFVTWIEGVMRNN

B1: FXII618 variant with P in position six replaced by S (peptide)
peptide: RCFRLSCRQLRCRW-NH2
modifications: linker 2-7-12 via TATA; N-terminus assumed
SMILES: CC(C)C[C@@H]1NC(=O)[C@H](CCC(N)=O)NC(=O)[C@H](CCCNC(=N)N)NC(=O)[C@@H]2CSCCC(=O)N3CN(CN(C3)C(=O)CCSC[C@H](NC(=O)[C@@H](N)CCCNC(=N)N)C(=O)N[C@@H](Cc3ccccc3)C(=O)N[C@@H](CCCNC(=N)N)C(=O)N[C@@H](CC(C)C)C(=O)N[C@@H](CO)C(=O)N2)C(=O)CCSC[C@@H](C(=O)N[C@@H](CCCNC(=N)N)C(=O)N[C@@H](Cc2c[nH]c3ccccc23)C(N)=O)NC(=O)[C@H](CCCNC(=N)N)NC1=O
[1]
  Ki: < 100 nM

B2: peptide 18 (peptide 2, Pro6 to leucine) (peptide)
peptide: RCFRLLCRQLRCRW-NH2
modifications: linker 2-7-12 via TATA; N-terminus assumed
SMILES: CC(C)C[C@@H]1NC(=O)[C@H](CCC(N)=O)NC(=O)[C@H](CCCNC(=N)N)NC(=O)[C@@H]2CSCCC(=O)N3CN(CN(C3)C(=O)CCSC[C@H](NC(=O)[C@@H](N)CCCNC(=N)N)C(=O)N[C@@H](Cc3ccccc3)C(=O)N[C@@H](CCCNC(=N)N)C(=O)N[C@@H](CC(C)C)C(=O)N[C@@H](CC(C)C)C(=O)N2)C(=O)CCSC[C@@H](C(=O)N[C@@H](CCCNC(=N)N)C(=O)N[C@@H](Cc2c[nH]c3ccccc23)C(N)=O)NC(=O)[C@H](CCCNC(=N)N)NC1=O
[1]
  Ki: < 100 nM
[2]
  fold reduction of activity vs peptide 2: < 2 fold

B3: peptide 15 (peptide 2, Pro6 to alanine) (peptide)
peptide: RCFRLACRQLRCRW-NH2
modifications: linker 2-7-12 via TATA; N-terminus assumed
SMILES: CC(C)C[C@@H]1NC(=O)[C@H](CCCNC(=N)N)NC(=O)[C@H](Cc2ccccc2)NC(=O)[C@@H](NC(=O)[C@@H](N)CCCNC(=N)N)CSCCC(=O)N2CN3CN(C2)C(=O)CCSC[C@@H](C(=O)N[C@@H](CCCNC(=N)N)C(=O)N[C@@H](Cc2c[nH]c4ccccc24)C(N)=O)NC(=O)[C@H](CCCNC(=N)N)NC(=O)[C@H](CC(C)C)NC(=O)[C@H](CCC(N)=O)NC(=O)[C@H](CCCNC(=N)N)NC(=O)[C@H](CSCCC3=O)NC(=O)[C@H](C)NC1=O
[1]
  Ki: < 100 nM
[2]
  fold reduction of activity vs peptide 2: < 2 fold

B4: JS33-R (rsCF^4…^bC) (peptide)
peptide: H-[dR][dS]C[Phe(4-F)]RLPCHQL[β3hR]C-NH2
modifications: linker 3-8-13 via TATA
SMILES: CC(C)C[C@@H]1NC(=O)[C@H](CCC(N)=O)NC(=O)[C@H](Cc2c[nH]cn2)NC(=O)[C@@H]2CSCCC(=O)N3CN(CN(C3)C(=O)CCSC[C@H](NC(=O)[C@@H](CO)NC(=O)[C@H](N)CCCNC(=N)N)C(=O)N[C@@H](Cc3ccc(F)cc3)C(=O)N[C@@H](CCCNC(=N)N)C(=O)N[C@@H](CC(C)C)C(=O)N3CCC[C@H]3C(=O)N2)C(=O)CCSC[C@@H](C(N)=O)NC(=O)C[C@H](CCCNC(=N)N)NC1=O
[3]
  Ki: 0.4 nM

B5: JS7m (FXII618, Arg1 to D-Arg-D-Ser) (peptide)
peptide: H-[dR][dS]CFRLPCRQLRCR-NH2
modifications: linker 3-8-13 via TATA
SMILES: CC(C)C[C@@H]1NC(=O)[C@H](CCC(N)=O)NC(=O)[C@H](CCCNC(=N)N)NC(=O)[C@@H]2CSCCC(=O)N3CN(CN(C3)C(=O)CCSC[C@H](NC(=O)[C@@H](CO)NC(=O)[C@H](N)CCCNC(=N)N)C(=O)N[C@@H](Cc3ccccc3)C(=O)N[C@@H](CCCNC(=N)N)C(=O)N[C@@H](CC(C)C)C(=O)N3CCC[C@H]3C(=O)N2)C(=O)CCSC[C@@H](C(=O)N[C@@H](CCCNC(=N)N)C(N)=O)NC(=O)[C@H](CCCNC(=N)N)NC1=O
notes: also called Arg1→D-Arg-D-Ser (rs)
[4]
  Ki: 18 nM

B6: FXII618 (peptide)
peptide: H-RCFRLPCRQLRCR-NH2
modifications: linker 2-7-12 via TATA
notes: Bicyclic; free N-terminus; also called peptide 1; bicyclic peptide 1
[5]
  Ki: 252 nM
[6]
  Ki: 5000 nM
[7]
  binding result: binds

B7: JS17m (FXII618, Arg8 to His) (peptide)
peptide: H-RCFRLPCHQLRCR-NH2
modifications: linker 2-7-12 via TATA
SMILES: CC(C)C[C@@H]1NC(=O)[C@H](CCC(N)=O)NC(=O)[C@H](Cc2c[nH]cn2)NC(=O)[C@@H]2CSCCC(=O)N3CN(CN(C3)C(=O)CCSC[C@H](NC(=O)[C@@H](N)CCCNC(=N)N)C(=O)N[C@@H](Cc3ccccc3)C(=O)N[C@@H](CCCNC(=N)N)C(=O)N[C@@H](CC(C)C)C(=O)N3CCC[C@H]3C(=O)N2)C(=O)CCSC[C@@H](C(=O)N[C@@H](CCCNC(=N)N)C(N)=O)NC(=O)[C@H](CCCNC(=N)N)NC1=O
notes: also called Arg8→His (H)
[8]
  Ki: 21.6 nM
[9]
  Ki: 80 nM

B8: JS34 (rsCF^4…) (peptide)
peptide: H-[dR][dS]C[Phe(4-F)]RLPCHQLRCR-NH2
modifications: linker 3-8-13 via TATA
SMILES: CC(C)C[C@@H]1NC(=O)[C@H](CCC(N)=O)NC(=O)[C@H](Cc2c[nH]cn2)NC(=O)[C@@H]2CSCCC(=O)N3CN(CN(C3)C(=O)CCSC[C@H](NC(=O)[C@@H](CO)NC(=O)[C@H](N)CCCNC(=N)N)C(=O)N[C@@H](Cc3ccc(F)cc3)C(=O)N[C@@H](CCCNC(=N)N)C(=O)N[C@@H](CC(C)C)C(=O)N3CCC[C@H]3C(=O)N2)C(=O)CCSC[C@@H](C(=O)N[C@@H](CCCNC(=N)N)C(N)=O)NC(=O)[C@H](CCCNC(=N)N)NC1=O
[3]
  Ki: 0.64 nM

B9: corn trypsin inhibitor (other, UniProt P01088 29-155, looked up)
chain: SAGTSCVPGWAIPHNPLPSCRWYVTSRTCGIGPRLPWPELKRRCCRELADIPAYCRCTALSILMDGAIPPGPDAQLEGRLEDLPGCPREVQRGFAATLVTEAECNLATISGVAECPWILGGGTMPSK
notes: also called CTI
[10]
  Ki: 12500 nM
[11]
  Ki: 5000 nM
[6]
  Ki: 7 nM

B10: JS35 (rsCF^4…^bCR) (peptide)
peptide: H-[dR][dS]C[Phe(4-F)]RLPCRQL[β3hR]CR-NH2
modifications: linker 3-8-13 via TATA
SMILES: CC(C)C[C@@H]1NC(=O)[C@H](CCC(N)=O)NC(=O)[C@H](CCCNC(=N)N)NC(=O)[C@@H]2CSCCC(=O)N3CN(CN(C3)C(=O)CCSC[C@H](NC(=O)[C@@H](CO)NC(=O)[C@H](N)CCCNC(=N)N)C(=O)N[C@@H](Cc3ccc(F)cc3)C(=O)N[C@@H](CCCNC(=N)N)C(=O)N[C@@H](CC(C)C)C(=O)N3CCC[C@H]3C(=O)N2)C(=O)CCSC[C@@H](C(=O)N[C@@H](CCCNC(=N)N)C(N)=O)NC(=O)C[C@H](CCCNC(=N)N)NC1=O
[3]
  Ki: 0.32 nM

## H-[dR][dS]CFRLPCHQL[β3hR]CR-NH2 (linker 3-8-13 via TATA) [JS36 (rs…^bCR)]
[3]
  Ki: 1 nM
